According to patent US20240327530A1 (ICHNOS SCIENCES, published 2024):
Positions count from the first letter of the chain named.

Tests used:
[1] = molecular target: T1, Recombinant human IL-1RAP-ECD(S21-E359)-avi-his protein (human, UniProt Q9NPH3 21-359); assay: SPR, IgG1 LALA captured on anti-human IgG Fc CM5 chip, human IL-1RAP-avi-his as analyte in a concentration series, 1:1 fit, one representative replicate
T1 construct: Biotinylated where loaded on streptavidin; also called human IL-1RAP-ECD-Avi-His; recombinant human IL-1RAP-avi-his protein
T1 sequence: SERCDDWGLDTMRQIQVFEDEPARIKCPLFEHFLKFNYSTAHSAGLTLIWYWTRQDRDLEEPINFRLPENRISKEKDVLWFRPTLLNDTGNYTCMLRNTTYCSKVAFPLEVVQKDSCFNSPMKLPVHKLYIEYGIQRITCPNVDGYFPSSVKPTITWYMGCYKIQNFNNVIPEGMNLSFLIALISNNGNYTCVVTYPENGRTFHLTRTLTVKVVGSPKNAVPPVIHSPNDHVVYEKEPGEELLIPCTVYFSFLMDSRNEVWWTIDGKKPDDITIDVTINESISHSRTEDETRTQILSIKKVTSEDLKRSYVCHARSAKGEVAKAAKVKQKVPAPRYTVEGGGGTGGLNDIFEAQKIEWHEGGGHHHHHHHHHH
Procedure: Anti-IL-1RAP-C8-RecC-ES IgG1 LALA was immobilized on a Series S CM5 sensor CHIP coupled with anti-human IgG Fc. Human IL-1RAP-avi-his or cynomolgus monkey IL-1RAP-avi-his was injected over immobilized IgG1 LALA in concentration series in HBS-EP+ buffer. One representative replicate for human IL-1RAP and cynomolgus monkey IL-1RAP is presented. Plots are showing data expressed as number of resonance units (abbreviated RU; Y axis) vs. time (s, X axis). Dotted lines represent the measured data while solid lines represent simulated fits. KD: equilibrium dissociation constant; Ka: association constant; Kd: dissociation constant.
(§1) Surface plasmon resonance (SPR) was used to measure the binding affinities of the human IgG1 LALA molecules for human and cynomolgus monkey IL-1RAP. Affinities were measured on a BIACORE™ T200 instrument (BIACORE™, GE […]®) at 25° C. and analyzed with the BIACORE™ T200 Evaluation Software (v3.1). Measurements were performed on Series S CM5 sensor chips (BIACORE™ T200, BIACORE™, GE […]®, catalog no. BR100530) coupled with anti-human IgG Fc (BIACORE™, GE […]®, catalog no. BR100839) using a commercial amine coupling kit (BIACORE™, GE […]®, catalog no. BR100050). SPR measurements were performed with recombinant human IL-1RAP-avi-his protein produced in house (SEQ ID NO. 1) or recombinant cynomolgus monkey IL-1RAP-avi-his protein produced in house (SEQ ID NO. 2). The affinities to human and cynomolgus monkey IL-1RAP were assessed by immobilizing anti-IL-1RAP IgG1 LALA molecules and using IL-1RAP proteins as analyte. Around 150 RU of human IgG1 LALA were captured on fc2 of a Series S CM5 sensor chip coupled with anti-human IgG Fc. Recombinant human IL-1RAP-avi-his protein or recombinant cynomolgus monkey IL-1RAP-avi-his protein was injected in multi cycle kinetic at different concentrations ranging from 0.14 to 100 nM, in HBS-EP+ buffer (BIACORE™, GE […]®, catalog no. BR100669) at a flow rate of 30 μl/min for 3 min on fc1 and fc2 (fc1 being used as reference). Dissociation was monitored for 12 min.

[2] = molecular target: T2, Recombinant cynomolgus monkey IL-1RAP-ECD(S21-E359)-avi-his protein (cynomolgus monkey, UniProt P59822 21-359 (rhesus entry)); assay: SPR, IgG1 LALA captured by anti-human Fc, cyno IL-1RAP-avi-his as analyte, 1:1 fit
T2 construct: also called cyno IL-1RAP-ECD-Avi-His; recombinant cynomolgus monkey IL-1RAP-avi-his protein
T2 sequence: T1 sequence with L183F, T273P, K326T
Procedure: as §1, with “min. After each cycle, the surface was regenerated with 60 μl of regeneration solution provided with anti-human IgG Fc capture kit (BIACORE™, GE […]®, catalog no. BR100839). Experimental data were processed using the 1:1 Langmuir kinetic fitting model. Measurements included zero-concentration samples for referencing. Chi², U- and residual values were used to evaluate the quality of a fit between the experimental data and individual binding models.” for “min.”

Kd [1]: 0.267 nM
koff [1]: 0.000169 s⁻¹
kon [1]: 633000 M⁻¹ s⁻¹
Kd [2]: 0.306 nM
koff [2]: 0.000212 s⁻¹
kon [2]: 692000 M⁻¹ s⁻¹
B1: Anti-IL-1RAP-C8-RecC-ES-IgG1LALA (antibody, V domains shown)
VH: QVQLVQSGAEVKKPGSSVKVSCKASGSPAEPYAIQWVRQAPGQGLEWMGYIIPSLGGYDYAQKFQGRVTITADESTSTAYMELSSLRSEDTAVYYCARGQTLYESGRQFDIWGQGTLVTVSS
VL: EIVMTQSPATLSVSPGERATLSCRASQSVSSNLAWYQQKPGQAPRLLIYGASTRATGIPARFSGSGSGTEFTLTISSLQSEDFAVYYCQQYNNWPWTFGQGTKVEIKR
notes: also called ISB 880-C8-recC-ES
